Columns and labels:
H3 protein [1] = target: T1, H3 protein (vaccinia virus, UniProt P07240 1-278); test: ELISA on recombinant protein
T1 sequence: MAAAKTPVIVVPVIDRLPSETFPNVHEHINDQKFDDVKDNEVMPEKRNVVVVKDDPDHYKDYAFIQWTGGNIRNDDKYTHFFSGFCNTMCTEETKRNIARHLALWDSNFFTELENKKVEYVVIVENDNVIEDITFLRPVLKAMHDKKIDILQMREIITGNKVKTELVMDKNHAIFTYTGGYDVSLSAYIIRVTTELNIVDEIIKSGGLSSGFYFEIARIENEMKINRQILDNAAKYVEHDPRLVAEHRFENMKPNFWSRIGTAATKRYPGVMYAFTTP

[2] = target: T2, VACV A33 recombinant protein (vaccinia virus, UniProt P68616 89-185)
L1 protein = target: T3, L1 protein (vaccinia virus, UniProt P07612 1-183); test: ELISA on recombinant VACV surface proteins
T3 sequence: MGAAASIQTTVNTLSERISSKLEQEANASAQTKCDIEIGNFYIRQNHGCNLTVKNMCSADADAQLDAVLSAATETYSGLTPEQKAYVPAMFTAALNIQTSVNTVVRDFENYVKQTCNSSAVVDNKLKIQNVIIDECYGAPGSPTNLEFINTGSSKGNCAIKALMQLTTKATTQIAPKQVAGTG

H3 protein [3] = target: T1, H3 protein; test: ELISA on recombinant VACV surface proteins
[4] = target: T2, VACV A33 recombinant protein; test: ELISA on recombinant VACV surface proteins
A27 protein = target: T4, A27 protein (vaccinia virus, UniProt P11258 1-110); test: ELISA on recombinant VACV surface proteins
T4 sequence: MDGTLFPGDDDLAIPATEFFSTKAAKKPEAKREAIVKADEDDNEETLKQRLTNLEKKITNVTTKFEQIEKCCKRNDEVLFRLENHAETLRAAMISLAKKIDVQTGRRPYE

B5 protein = B5 protein (vaccinia virus, UniProt Q01227 18-279); test: ELISA on recombinant VACV surface proteins

B1: MV7 (antibody, V domains shown)
VH: QEQLVQSGGGLAKPGGSLRISCAASGFVFSRSAMHWVRQAPGKGLEWVSGISGGGATYYADSVKGRFTISRDNSKNTFSLQMNSLRLEDTAVYYCAKDRRRSVASSYFDSWGQGVLVTVSS
VL: QSVLTQPQSVSVSPGQTARISCGGDNIGSKNVHWYQQKPPQAPVLVIYAGTERPSGIPERFSGSNSGNTATLTISGVEAGDEADYYCQVWDGTREHVLFGGGTRLTVL
B1: binds (H3 protein [1]).

B2: MV26 (antibody, V domains shown)
VH: EVQLAESGGGLVQPGGSLRLSCAASGFTFSNYWMYWFRQAPGKGLEWVSSISGSRRNIHYSDSVRGRFTVSRDNAKSTLSLQMNSLRPEDTAVYYCAREGETSTFYFGYWGQGVLVTASS
VL: KPMLTQPPSVSVSPGQTARITCGGDNLGTKNVQWYQQKSAQAPVVVIYDDGERPSGIPERFSGSKSGNVATLTISGVEAGDDADYYCQVWDGSSDHPIFGRGTRLTVL
B2: binds (H3 protein [1]).

B3: EV42 (antibody, V domains shown)
VH: EVQLVESGPRLVKPSETLSLTCAVSGASITSNYWSWIRQPPGKGLEWIGRTPGSSGSTDYNPSLKSRVTISTDTSKNQFSLKLTSVTAADTAVYFCARRYTDSYYLYYFDFWSQGVLVTVSS
VL: QSALTQPPSVSGSPGQSVTISCTGTNSDIGSYKYVSWYQKHPGKAPKLVIYDVSQRPSGVSDRFSGSKSGNTASLTISGLQAEDEADYYCSSYAGINTFNVFGSGTKLTIL
B3 was tested, and the Kd [2] was 0.095 nM.

B4: MV31 (antibody, V domains shown)
VH: EVQLAESGGGLVPPDGSLRLSCTASGFTFSNYWMYWFRQAPGKGLEWVASISGSRRNIDYSDSVKGRFTISRDNAKNTLFLQMNRLRGDDTAVYYCAREGETSTYFFDPWGQGVLVTASS
VL: QPVLTQPPTVSKSLGQSVTISCTGTSSDVGGYNYVSWYQQRPGKAPKLLIYEVTKRPSGVSDRFSGSKSGNTASLTISGLQAEDEADYYCSSYTTSNTYIFGTGTRLTVL
B4: binds (H3 protein [1]).

B5: EV4 (antibody, V domains shown)
VH: QVQLQESGPGLVKPSETLSLTCAVSGGSISNNYWSWVRQAPGKGLEWIGRIYGSSGSSSYNPSLTGRLTISRDTSKNQLSLRLNSMTAADTAFYYCVRQYFGPRGAFDFWGQGLRVTVSS
VL: QPGLTQSPSASEAARKSVTISCSGSSSNIGSNSVSWYQQLPETAPKLLVYYNDRRASSVSDRFSGSKSGTSASLAISGLQTEDEADYYCAAWDNSLSGYVFGAGTRLTVL
B5: no binding (L1 protein); no binding (H3 protein [3]); no binding [4]. B5: no binding (A27 protein); no binding (B5 protein).

Reference: patent publication EP4669352A1 (dated 2025)
